The record followed here is paper PMC8236918, “CYRI-A limits invasive migration through macropinosome formation and integrin uptake regulation” (The Journal of Cell Biology, 2021).

For the assay, the target named is untagged full-length RAC1 Q61L (UniProt P63000 1-192, Q61L). Nature of the assay: SPR; MBP-tagged CYRI immobilised on Sensor chip CM5; purified untagged RAC1 Q61L titrated at different concentrations; steady-state responses fitted to a 1:1 binding model. The note with it: both partners purified.

B1: MBP-tagged full-length CYRI-B (natural protein)
chain: MGNLLKVLTCTDLEQGPNFFLDFENAQPTESEKEIYNQVNVVLKDAEGILEDLQSYRGAGHEIREAIQHPADEKLQEKAWGAVVPLVGKLKKFYEFSQRLEAALRGLLGALTSTPYSPTQHLEREQALAKQFAEILHFTLRFDELKMTNPAIQNDFSYYRRTLSRMRINNVPAEGENEVNNELANRMSLFYAEATPMLKTLSDATTKFVSENKNLPIENTTDCLSTMASVCRVMLETPEYRSRFTNEETVSFCLRVMVGVIILYDHVHPVGAFAKTSKIDMKGCIKVLKDQPPNSVEGLLNALRYTTKHLNDETTSKQIRSMLQ
notes: CYRI-B (encoded by FAM49B), full length; source: E. coli BL21, purified (MBPTrap HP, size-exclusion chromatography)
The molecule B1 returned an equilibrium dissociation constant (Kd) of around 38 µM.
